The experiment addresses complement component C1q. The experiment can be described thus: SPR. A general note: Surface plasmon resonance follows binding to a sensor surface in real time, without labels.

In general, Kd refers to the concentration at which binding is half-saturated. Lower therefore signals a tighter complex.

B1: soluble SCARF1 protein (receptor)
chain: SELDPKGQHVCVASSPSAELQCCAGWRQKDQECTIPICEGPDACQKDEVCVKPGLCRCKPGFFGAHCSSRCPGQYWGPDCRESCPCHPHGQCEPATGACQCQADRWGARCEFPCACGPHGRCDPATGVCHCEPGWWSSTCRRPCQCNTAAARCEQATGACVCKPGWWGRRCSFRCNCHGSPCEQDSGRCACRPGWWGPECQQQCECVRGRCSAASGECTCPPGFRGARCELPCPAGSHGVQCAHSCGRCKHNEPCSPDTGSCESCEPGWNGTQCQQPCLPGTFGESCEQQCPHCRHGEACEPDTGHCQRCDPGWLGPRCEDPCPTGTFGEDCGSTCPTCVQGSCDTVTGDCVCSAGYWGPSCNASCPAGFHGNNCSVPCECPEGLCHPVSGSCQPGSGSRDT
For the molecule B1, the Kd was 124 nM.

Source of the values: PMC3752698.
